Laboratory results from the DeepSol protein solubility set.

Assay: soluble on expression in E. coli; label from the status in PepcDB or PDB records

| Sequence | soluble on expression in E. coli |
| --- | --- |
| SGRTWREADINYTSGFRNSDRILYSSDWLIYKTTDHYQTFTKIRCAQVINTFDGVADYLQTYHKLPDNYITKSEAQALGWVASKGNLADVAPGKSIGGDIFSNREGKLPGK | soluble |
| MEVKYGLHPTLGEHGERELLALQKVDYPKGDVKAQAKHTARTLLECYNCHSLGEYNTLLNLYNITVYEVRGSVDGKEYHGIMYGALDDNGQQVGTPFKSSKFGKVFGYEALQKKFAASAEKVKKDNLPERLEHHHHHH | not soluble |
| MSIVVKKWNELAEVKAELAARDWFFATSGNLSIKVTDDPLTFLVTASGKDKRKQTEEDFLLVDAAGKPAEETNLKPSAETLLHAEIYGRTNAGCVLHVHTVDNNLISELYAQNGEAVFSGQEIIKAFGIWEENAAVRIPIIDNYADIPTLAREFANYIHGDAGAVLIQNHGITVWGRTAFEAKKHLEAWEFLFRWQVKRLLLQRAGLPVG | not soluble |
| MSLAEFIYTMKKVRKAHGDKVILDDVTLSFYPGAKIGVVGPNGAGKSSVLRIMAGLDKPNNGDAFLATGATVGILQQEPPLNEDKTVRGNVEEGMGDIKIKLDRFNEVAELMATDYTDELMEEMGRLQEELDHADAWDLDAQLEQAMDALRCPPADEPVTNLSGGERRRVALCKLLLSKPDLLLLDEPTNHLDAESVQWLEQHLASYPGAILAVTHDRYFLDNVAEWILELDRGRAYPYEGNYSTYLEKKAERLAVQGRKDAKLQKRLTEELAWVRSGAKARQAKSKARLQRYEEMAAEAEKTRKLDFEEIQIPVGPRLGNVVVEVDHLDKGYDGRALIKDLSFSLPRNGIVGVIGPNGVGKTTLFKTIVGLETPDSGSVKVGETVKLSYVDQARAGIDPRKTVWEVVSDGLDYIQVGQTEVPSRAYVSAFGFKGPDQQKPAGVLSGGERNRLNLALTLKQGGNLILLDEPTNDLDVETLGSLENALLNFPGCAVVISHDRWFLDRTCTHILAWEGDDDNEAKWFWFEGNFGAYEENKVERLGVDAARPHRVTHRKLTRGEGHHHHHH | soluble |
| MISATYRLQLNKNFNFGDVIDNLWYFKDLGVSHLYLSPVLMASPGSNHGYDVIDHSRINDELGGEKEYRRLIETAHTIGLGIIQDIVPNHMAVNSLNWRLMDVLKMGKKSKYYTYFDFFPEDDKIRLPILGEDLDTVISKGLLKIVKDGDEYFLEYFKWKLPLTEVGNDIYDTLQKQNYTLMSWKNPPSYRRFFDVNTLIGVNVEKDHVFQESHSKILDLDVDGYRIDHIDGLYDPEKYINDLRSIIKNKIIIVEKILGFQEELKLNSDGTTGYDFLNYSNLLFNFNQEIMDSIYENFTAEKISISESIKKIKAQIIDELFSYEVKRLASQLGISYDILRDYLSCIDVYRTYANQIVKECDKTNEIEEATKRNPEAYTKLQQYMPAVYAKAYEDTFLFRYNRLISINEVGSDLRYYKISPDQFHVFNQKRRGKITLNATSTHDTKFSEDVRMKISVLSEFPEEWKNKVEEWHSIINPKVSRNDEYRYYQVLVGSFYEGFSNDFKERIKQHMIKSVREAKINTSWRNQNKEYENRVMELVEETFTNKDFIKSFMKFESKIRRIGMIKSLSLVALKIMSAGIPDFYQGTEIWRYLLTDPDNRVPVDFKKLHEILEKSKKFEKNMLESMDDGRIKMYLTYKLLSLRKQLAEDFLKGEYKGLDLEEGLCGFIRFNKILVIIKTKGSVNYKLKLEEGAIYTDVLTGEEIKKEVQINELPRILVRM | soluble |
| MGSDKIHHHHHHMNDLSRSPYILEMRNVSKTFPGVKALDGINLKVKRGTIHALMGENGAGKSTLMKILYGIYTPDAGGELILDDKPFKPSAPIDAIRTGLTMVPQEISPAGNLTIADNFYLGREITRSKFFLNQKEMDCKTAEILNELGIPMDVTAKMSDVSVAKAQLVAIATAVSNDAKVIIMDEPTTALTEVEVEQLYKIIETVRQRGISIIFISHKLDEVFRVSDEITVIRDGQYVGTKLTSEVTKDELISMMVGRDMSEMFQRERIVISDEVVLEIKNFSRAGKYHDINFQVRRGEIFGIAGLVGAGRSEIVEGLFGYKLADSGEIYVHGEKADIKTPLDAMKYKIGFVTEDRKLTGLFLNLSITDNMIMPRMSPYLENFLVSVTKAQKSANAQKDKLKIKAPNVEVITNNLSGGNQQKVLLARWLLLEPDILILDEPTKGIDVGAKAELYKLMVELAKQGKSIIMITSDMLELLSMSDRVMVMHEGRVAGIIPQEELTQERVLELASGLGQV | not soluble |
| MSTFKITIIGGGSSYTPELVDGLIQRIEQLPVTELALVDVEQGRQKVEIIAALTQRMLARHGLEQVKVSVHYSLDEAIRGARFVLTQFRVGQLPARAADERLGLKYNLLGQETTGIGGFAKALRTIPVMLDIAANVERLAPDAWIINFTNPAGIVTEAVSRYTKAKIIGLCNVPISMHHMIAKLLQAPYEDLQLRFAGLNHMVWVHEVLQRGKYVTADVLKMLCDGASLSMNNIKEAPWPPEFLQAMGAIPCPYHRYFYQTQDMLAEEMAAAAERGTRAEQVMQVEKELFALYADPHLDTKPEQLSFRGGSFYSEVALELIRAIHNNLGTQLVVNTTNRGAIRGLSDDSVVETNCIIDAKGAHPLTFGPLPVSMHGLTQQVKAYERLTIDAAVHGDRRSALLALVTNPLIANASIAQPLLEEVLQVNKPYLPQFSGL | not soluble |
| RGFQHGIRHNVEQFGMGTSAISFSTWRTSKEYGGYPKDRYIELTPADCDYLVKLNPDLIKGAAYYTNQWSYDVQYEDRTHSTPTKAVSGEYGNMVKTHLIEGRFLSTSDDAMKRKVIVLCEQTADVLFGESISPIGKYVNLSQIPFLVVGVCKGEQGQFSPNYIPFATYSGIFAKGFSLDCTLFMNCPSVRTEENVERLKVLLNRQLAFRKGYDPTDMEVPYVDAPVTDIKMMDKIFNGMD | not soluble |
| MGHHHHHHSHMLRVLLSAQTSPARLSGLLLIPPVQPCCLGPSKWGDRPVGGGPSAGPAQGLQRLLEQAKSPGELLRWLGQNPSKVRAHHYSVALRRLGQLLGSRPRPPPVEQVTLQDLSQLIIRNCPSFDIHTIHVCLHLAVLLGGTEVGPALWATELPAPGTAVYALP | not soluble |
| RAGLSKLPDLKDAEAVQKFFLEEIQLGEELLAQGDYEKGVDHLTNAIAVCGQPQQLLQVLQQTLPPPVFQMLLTKLPTISQRIVSAQSLGEDDVE | soluble |
| MGRNRIKKVTERLPLPPNARRVEDPEMNMSREVVEDPGVPGTQDVTFAVAEVNGVETGRLPVANVVVTPAHEAVVRVGTKPGTEVPPVIDGSIWDAIAGCEAGGNWAINTGNGYYGGVQFDQGTWEANGGLRYAPRADLATREEQIAVAEVTRLRQGWGAWPVCAARAGAR | soluble |
| MAHHHHHHHRSEQIAAVRRMVEAYNTGKTDDVADYIHPEYMNPGTLEFTSLRGPELFAINVAWVKKTFSEEARLEEVGIEERADWVRARLVLYGRHVGEMVGMAPTGRLFSGEQIHLLHFVDGKIHHHRDWPDYQGTYRQLGEPWPETEHRRP | soluble |
| AKTAAALHILVKEEKLALDLLEQIKNGADFGKLAKKHSICPSGKRGGDLGEFRQGQMVPAFDKVVFSCPVLEPTGPLHTQFGYHIIKVLYRN | soluble |
| MGSDKIHHHHHHMRKKSLTLLSDGYLFRKENTIYFENARGKKPLAIEGIYDIYIYGKVSISSQALHYLAQKGIALHFFNHYGYYDGSFYPRESLHSGYLVVNQVEHYLDKDKRLELAKLFIIGGIKNMEWNLLKFKNKTKFSSYIEELNNCNKITEVMNVEGRVRTEYYRLWDETLPDDFKIVKRTRRPPKNEMNALISFLNSRLYPAIITELYNTQLTPTVSYLHEPHERRFSLALDLSEIFKPMIADRLANRLVKQGIIQKKHFRDDLNGVLLNKEGMKVVLEHFNKEMDKTVNHKKLKKNVSKRRLIRLEAYKLVKHLVGQKRYEPLVAWF | not soluble |
| MGKKVVVIGAGPGGIMAAGKAAERGHNVTLFEKNDRIGKKILISGKGRCNITNNTDIEGLIENIPGNGNFLYSAFYTFSNHDLIEFFEQYGLKTKVERGGRVFPVSDDAKDVNNALLKFLNKAKVNLRLNSPVQEIKAKNNTVTGVVLKDGTEVPCDAVVLATGGASYPGTGSTGDGYVMAKKLGHTIVDLKPSLVPLLAEEEWVKELQGLSLKNVSITILSKAGKKIYTDFGEMLFTHFGVSGPIILSASRHILDYDYKNVKLVIDLKPALSEEKLDERILRDFEKYSRKQYKNSLDDLLPKKMIPVIVKLSGIEPEKFVNQIKKEERRALVRLLKNLTLNINGSRPIKEAIVTAGGVSTDEINPSTMESKLVKGLYFAGEIIDVDGYTGGFNLTIAFSTGYLAGVSC | soluble |
